Results on three molecules are retold here after patent US20230159643A1 (H LUNDBECK A S, published 2023).

One assay addresses T1, Sortilin hSORTECDBAP (human, UniProt Q99523 78-755, biotinylated on the BAP tag by co-expression of biotin ligase).
T1 construct: Soluble extracellular region (ECD, aa 1-755) with BAP tag
T1 sequence: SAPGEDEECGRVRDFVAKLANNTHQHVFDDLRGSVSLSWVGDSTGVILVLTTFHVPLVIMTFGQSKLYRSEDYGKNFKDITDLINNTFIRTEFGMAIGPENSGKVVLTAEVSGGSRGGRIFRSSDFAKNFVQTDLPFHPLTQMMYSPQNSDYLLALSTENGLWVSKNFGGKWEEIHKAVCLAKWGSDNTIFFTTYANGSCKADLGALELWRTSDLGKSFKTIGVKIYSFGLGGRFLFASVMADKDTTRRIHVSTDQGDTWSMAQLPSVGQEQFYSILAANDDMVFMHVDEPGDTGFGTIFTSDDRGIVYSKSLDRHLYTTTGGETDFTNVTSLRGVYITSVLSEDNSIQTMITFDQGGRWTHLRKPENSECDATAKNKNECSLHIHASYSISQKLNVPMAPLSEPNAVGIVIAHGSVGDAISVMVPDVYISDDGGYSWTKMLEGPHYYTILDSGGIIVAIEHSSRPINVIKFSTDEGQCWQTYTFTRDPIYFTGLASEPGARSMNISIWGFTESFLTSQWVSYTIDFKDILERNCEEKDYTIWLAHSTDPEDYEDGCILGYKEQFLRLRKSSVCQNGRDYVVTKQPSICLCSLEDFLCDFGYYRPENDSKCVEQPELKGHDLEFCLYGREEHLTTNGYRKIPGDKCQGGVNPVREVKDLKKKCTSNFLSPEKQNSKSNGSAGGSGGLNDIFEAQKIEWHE
As to the kind of experiment: BLI Octet 384RED, antibody on Protein A sensor, Sortilin construct in solution. The procedure:
(§1) Binding kinetics of anti-Sortilin HuMab antibodies to Sortilin were determined using Octet 384RED (Fortebio, Menlo Park, USA). HuMab solutions of 2 μg/ml were made by dilution in sample diluent (ForteBio, art. No. 18-5028). Prot A sensors (ForteBio, art. no. 18-0004) were prewetted with kinetics buffer (1:10 sample diluent in PBS) for at least 600 seconds. Subsequently sensors were immobilized with HuMab solution for 600 seconds. A baseline response was obtained by dipping in kinetics buffer for 120 seconds. Association of SORTECD constructs was performed during a 1000 seconds incubation. This was followed by dissociation in kinetics buffer for 100 seconds. After dissociation, sensors were regenerated (10 mM Glycine pH 1.0) and neutralized (kinetics buffer) 3 times for 5 seconds. […] A molecular weight of 76.8 kDA was used for SORTECDHis. Data was fitted with ForteBio Analysis 6.4 software, using a global full fit.
A general note: Biolayer interferometry detects binding as a change in optical thickness at a sensor tip.

The target of assay [1] is T2, Sortilin SORTECDBAP_hB12390 (human/tetraodon chimera).
T2 construct: Shuffle construct
T2 chain: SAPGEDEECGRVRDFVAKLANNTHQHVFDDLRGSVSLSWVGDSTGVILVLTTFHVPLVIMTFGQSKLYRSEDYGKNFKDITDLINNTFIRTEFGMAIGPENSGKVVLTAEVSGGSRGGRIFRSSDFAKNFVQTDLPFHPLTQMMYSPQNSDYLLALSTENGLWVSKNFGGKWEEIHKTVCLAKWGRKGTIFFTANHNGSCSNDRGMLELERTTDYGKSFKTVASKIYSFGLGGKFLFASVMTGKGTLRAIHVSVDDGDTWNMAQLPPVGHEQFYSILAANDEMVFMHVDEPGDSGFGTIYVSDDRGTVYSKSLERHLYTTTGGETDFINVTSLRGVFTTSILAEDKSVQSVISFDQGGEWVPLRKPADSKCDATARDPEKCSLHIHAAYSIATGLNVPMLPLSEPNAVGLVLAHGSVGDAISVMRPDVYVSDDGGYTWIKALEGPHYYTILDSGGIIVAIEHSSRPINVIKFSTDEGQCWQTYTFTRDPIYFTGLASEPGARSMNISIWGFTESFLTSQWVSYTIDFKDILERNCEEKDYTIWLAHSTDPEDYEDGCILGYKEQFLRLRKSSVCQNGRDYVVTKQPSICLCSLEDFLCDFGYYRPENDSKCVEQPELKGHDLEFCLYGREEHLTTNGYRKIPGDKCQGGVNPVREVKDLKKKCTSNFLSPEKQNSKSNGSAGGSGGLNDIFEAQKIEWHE
The description is as above. The procedure: as §1

In assay [2] the target is T3, Sortilin SORTECDBAP_hB45678 (human/tetraodon chimera).
T3 construct: Shuffle construct
T3 chain: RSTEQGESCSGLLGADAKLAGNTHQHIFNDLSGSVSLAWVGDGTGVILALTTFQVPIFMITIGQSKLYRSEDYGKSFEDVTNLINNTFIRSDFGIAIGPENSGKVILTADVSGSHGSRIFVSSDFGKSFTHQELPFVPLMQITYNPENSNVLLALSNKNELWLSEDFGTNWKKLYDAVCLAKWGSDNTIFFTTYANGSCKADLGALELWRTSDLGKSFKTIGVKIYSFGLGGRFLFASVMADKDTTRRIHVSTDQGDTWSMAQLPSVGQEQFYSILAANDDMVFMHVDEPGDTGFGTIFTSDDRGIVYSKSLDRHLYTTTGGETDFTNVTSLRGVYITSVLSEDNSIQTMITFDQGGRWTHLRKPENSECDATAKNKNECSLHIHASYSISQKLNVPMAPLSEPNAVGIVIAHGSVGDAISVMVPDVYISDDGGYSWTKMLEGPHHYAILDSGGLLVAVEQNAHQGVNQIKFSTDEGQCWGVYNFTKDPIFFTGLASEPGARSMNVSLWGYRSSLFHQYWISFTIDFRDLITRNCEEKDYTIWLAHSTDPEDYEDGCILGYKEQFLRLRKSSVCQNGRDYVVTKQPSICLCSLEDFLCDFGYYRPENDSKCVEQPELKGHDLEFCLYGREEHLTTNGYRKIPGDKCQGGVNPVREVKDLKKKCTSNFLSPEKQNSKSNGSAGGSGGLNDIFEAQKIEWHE
Nature of the assay: BLI Octet 384RED (Example 8), Sortilin construct in solution. On the procedure:
as §1

B1: 1320 (antibody, V domains shown)
VH: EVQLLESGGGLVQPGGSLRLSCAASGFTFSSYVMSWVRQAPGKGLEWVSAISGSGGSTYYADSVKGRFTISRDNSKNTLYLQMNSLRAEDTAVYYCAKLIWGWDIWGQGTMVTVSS
VL: EIVLTQSPATLSLSPGERATLSCRASQSVSSYLAWYQQRPGQAPRLLIYDASNRATGIPARFSGSGSGTDFTLSISSLEPEDFAVYYCQQRTNWSITFGQGTRLEIK
notes: also called IgG1-6003-1320; Antibody 1320
In the case of B1, the EC50 – broadly, the concentration at which the effect is half-maximal – came to 0.0191 µg/mL with Sortilin hSORTECDBAP and 0.0123 µg/mL in assay [1].

B2: Antibody 1F2 (antibody, V domains shown)
VH: EVQLVESGGDLVKPGGSLKLSCAASGFTFSSYGMSWVRQTPDKRLEWVAIISSGGSYTHYPDSVKGRFTISRDNAKNTLYLQMSSLKSEDTAMYYCARLCGPLCSGYWGQGTSVTVSS
VL: QAVVTQESALTTSPGETVTLTCRSSTGAVTTSNYANWVQEKPDHLFTGLIGGTNNRAPGVPARFSGSLIGDKAALTITGAQTEDEAIYFCALWYSNHFWVFGGGTKLTVLG
notes: Mouse anti-human Sortilin monoclonal antibody from hybridoma (BALB/c), purified on protein G; Assigned to the D Region; also called 1F2F4; Ab 1F2
B2: the binding result in assay [2] is recorded as “no binding (tested: 10 µg/ml construct)”.

B3: Antibody 5E1 (antibody, V domains shown)
VH: EVHLVESGGDLVNPGGSLKLSCEASGFIFSIYGMSWVRQTPDKRLEWVAMISSGGIYTQYPDSVKGRFTISRDNAKNTLYLQMSGLKSEDTGTYHCTRHDDSWFAYWGQGTLVTVSA
VL: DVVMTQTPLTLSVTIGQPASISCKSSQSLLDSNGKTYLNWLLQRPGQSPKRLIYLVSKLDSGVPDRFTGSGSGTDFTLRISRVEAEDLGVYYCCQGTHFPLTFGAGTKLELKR
notes: Mouse anti-human Sortilin monoclonal antibody from hybridoma (BALB/c), purified on protein G; Assigned to the D Region; also called 5E1F6; Ab 5E1
On to B3, for which the binding result in assay [2] is “no binding (tested: 10 µg/ml construct)”.
